In PMC6057269, “A Flat BAR Protein Promotes Actin Polymerization at the Base of Clathrin-Coated Pits” (Cell, 2018):
One block for each binder: values may come before it.

Experiments:
[1] = molecular target: the molecule itself; assay: SEC-MALS; Superdex S-200 10/300, 150 mM NaCl, 20 mM HEPES pH 7.5, 500 μM TCEP; F2B12 at two concentrations
[2] = molecular target: T1, ITSN1 SH3d (aa1076-1138), recombinant (human, UniProt Q15811-1 1076-1138); assay: pull-down; GST-tagged SH3 domains on glutathione beads incubated with recombinant protein for 10 min at room temperature, 6 washes; Coomassie stained gel; settings: both partners purified
T1 construct: Intersectin 1 long form (ITSN1L), human, fourth SH3 domain (SH3d), residues 1076-1138; The purification of this protein is not described; the tag was probably cleaved as for the FCHSD2 proteins (surmised); also called pOPINS-ITSN1-SH3d; source: E. coli, 6xHis-SUMO construct (pOPINS)
T1 sequence (looked up): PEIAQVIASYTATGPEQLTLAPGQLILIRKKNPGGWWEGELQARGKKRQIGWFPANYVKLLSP

[3] = molecular target: T1, ITSN1 SH3d (aa1076-1138), recombinant; assay: ITC; isothermal titration calorimetry of FCHSD2 SH3-2 and ITSN1 SH3d; conditions and direction of titration not told; settings: both partners purified
[4] = molecular target: T2, GST-tagged ITSN1 SH3d (aa1076-1138) T1086A (human, UniProt Q15811-1 1076-1138, T1086A); assay: pull-down; GST-tagged SH3 domains on glutathione beads incubated with recombinant protein for 10 min at room temperature, 6 washes; Coomassie stained gel; settings: both partners purified
T2 construct: Intersectin 1 long form (ITSN1L), human, SH3d, residues 1076-1138; also called crystal contact control mutant T1086; not shown: GST, N-terminal, kept
T2 sequence (looked up): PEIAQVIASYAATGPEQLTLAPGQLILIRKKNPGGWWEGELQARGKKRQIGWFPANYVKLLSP

[5] = molecular target: the molecule itself; assay: cryo-EM structure; single particle cryo-EM of F2B1 at 0.15-0.3 mg/ml; C2 symmetry applied; 9.2 Å reconstruction

binding result [2]: binds
B2: GST-tagged FCHSD2 SH3-2 (aa568-629) N613A (domain or fragment, human, UniProt O94868-1 568-629, looked up)
chain: SVCFVKALYDYEGQTDDELSFPEGAIIRILNKENQDDDGFWEGEFAGRIGVFPSVLVEELSA
notes: FCHSD2, human, second SH3 domain, residues 568-629; also called crystal contact control mutant N613; not shown: GST, N-terminal, kept

binding result [2]: binds
B3: GST-tagged FCHSD2 SH3-2 (aa568-629) D583A (domain or fragment, human, UniProt O94868-1 568-629, looked up)
chain: SVCFVKALYDYEGQTADELSFPEGAIIRILNKENQDDDGFWEGEFNGRIGVFPSVLVEELSA
notes: FCHSD2, human, second SH3 domain, residues 568-629; also called crystal contact control mutant D583; not shown: GST, N-terminal, kept

The remaining lines, values behind:

B1: FCHSD2 BAR + SH3-1 + SH3-2 (F2B12: aa1-629) (domain or fragment, human, UniProt O94868-1 1-629, looked up)
chain: MQPPPRKVKVTQELKNIQVEQMTKLQAKHQAECDLLEDMRTFSQKKAAIEREYAQGMQKLASQYLKRDWPGVKADDRNDYRSMYPVWKSFLEGTMQVAQSRMNICENYKNFISEPARTVRSLKEQQLKRCVDQLTKIQTELQETVKDLAKGKKKYFETEQMAHAVREKADIEAKSKLSLFQSRISLQKASVKLKARRSECNSKATHARNDYLLTLAAANAHQDRYYQTDLVNIMKALDGNVYDHLKDYLIAFSRTELETCQAVQNTFQFLLENSSKVVRDYNLQLFLQENAVFHKPQPFQFQPCDSDTSRQLESETGTTEEHSLNKEARKWATRVAREHKNIVHQQRVLNDLECHGAAVSEQSRAELEQKIDEARENIRKAEIIKLKAEARLDLLKQIGVSVDTWLKSAMNQVMEELENERWARPPAVTSNGTLHSLNADTEREEGEEFEDNMDVFDDSSSSPSGTLRNYPLTCKVVYSYKASQPDELTIEEHEVLEVIEDGDMEDWVKARNKVGQVGYVPEKYLQFPTSNSLLSMLQSLAALDSRSHTSSNSTEAELVSGSLNGDASVCFVKALYDYEGQTDDELSFPEGAIIRILNKENQDDDGFWEGEFNGRIGVFPSVLVEELSA
notes: FCHSD2, human, F-BAR + SH3-1 + SH3-2, residues 1-629; also called FCHSD2 (F2B12 construct); source: E. coli Rosetta (DE3), purified (HisTrap, anion exchange, Sumo protease, Superdex 200); not shown: His-SUMO, N-terminal, cleaved
stoichiometry N [1]: 2

B4: FCHSD2 SH3-2 (aa568-629), recombinant (domain or fragment, human, UniProt O94868-1 568-629, looked up)
chain: SVCFVKALYDYEGQTDDELSFPEGAIIRILNKENQDDDGFWEGEFNGRIGVFPSVLVEELSA
notes: FCHSD2, human, second SH3 domain, residues 568-629; that the same preparation was the prey of the GST pull-downs and the ITC sample is surmised; also called pOPINS-FCHSD2 SH3-2; F2S2; source: E. coli Rosetta (DE3), purified (HisTrap, anion exchange, Sumo protease, Superdex 200); not shown: His-SUMO, N-terminal, cleaved
Kd [3]: 248 nM | stoichiometry N [3]: ~1 | binding result [4]: binds

B5: FCHSD2 BAR + SH3-1 (F2B1: aa1-530) (domain or fragment, human, UniProt O94868-1 1-530, looked up)
chain: MQPPPRKVKVTQELKNIQVEQMTKLQAKHQAECDLLEDMRTFSQKKAAIEREYAQGMQKLASQYLKRDWPGVKADDRNDYRSMYPVWKSFLEGTMQVAQSRMNICENYKNFISEPARTVRSLKEQQLKRCVDQLTKIQTELQETVKDLAKGKKKYFETEQMAHAVREKADIEAKSKLSLFQSRISLQKASVKLKARRSECNSKATHARNDYLLTLAAANAHQDRYYQTDLVNIMKALDGNVYDHLKDYLIAFSRTELETCQAVQNTFQFLLENSSKVVRDYNLQLFLQENAVFHKPQPFQFQPCDSDTSRQLESETGTTEEHSLNKEARKWATRVAREHKNIVHQQRVLNDLECHGAAVSEQSRAELEQKIDEARENIRKAEIIKLKAEARLDLLKQIGVSVDTWLKSAMNQVMEELENERWARPPAVTSNGTLHSLNADTEREEGEEFEDNMDVFDDSSSSPSGTLRNYPLTCKVVYSYKASQPDELTIEEHEVLEVIEDGDMEDWVKARNKVGQVGYVPEKYLQFPTS
notes: FCHSD2, human, F-BAR + SH3-1, residues 1-530; also called FCHSD2 F-BAR+SH3-1; source: E. coli Rosetta (DE3), purified (HisTrap, anion exchange, Sumo protease, Superdex 200); not shown: His-SUMO, N-terminal, cleaved
binding result [5]: binds
